Reference: patent US20240124553A1
“And” between values parts separate entries of the source, which are not always exact repeats. Equal values may be shown once. Read-outs that look alike come from different tables or passages of the source.

How the values were obtained:
[1] = molecular target: CHIKV virus-like particles (strain 37997) (chikungunya virus)
[2] = molecular target: CHIKV E2-6K-E1 envelope proteins (strain S27) with E2 N193A (Chikungunya virus strain S27) (UniProt Q8JUX5); test: flow cytometry, transfected 293T cells
[3] = molecular target: CHIKV E2-6K-E1 envelope proteins (strain S27) with E2 V216A (Chikungunya virus strain S27) (UniProt Q8JUX5); test: flow cytometry, transfected 293T cells
[4] = molecular target: CHIKV E2-6K-E1 envelope proteins (strain S27) with E2 N218A (Chikungunya virus strain S27) (UniProt Q8JUX5); test: flow cytometry, transfected 293T cells
[5] = molecular target: CHIKV E2-6K-E1 envelope proteins (strain S27) with E2 I190A (Chikungunya virus strain S27) (UniProt Q8JUX5); test: flow cytometry, transfected 293T cells
[6] = molecular target: CHIKV E2-6K-E1 envelope proteins (strain S27) with E2 L210A (Chikungunya virus strain S27) (UniProt Q8JUX5); test: flow cytometry, transfected 293T cells
[7] = molecular target: CHIKV E2-6K-E1 envelope proteins (strain S27) with E2 T212A (Chikungunya virus strain S27) (UniProt Q8JUX5); test: flow cytometry, transfected 293T cells
[8] = molecular target: CHIKV E2-6K-E1 envelope proteins (strain S27) with E2 T191A (Chikungunya virus strain S27) (UniProt Q8JUX5); test: flow cytometry, transfected 293T cells
[9] = molecular target: CHIKV E2-6K-E1 envelope proteins (strain S27) with E2 R198A (Chikungunya virus strain S27) (UniProt Q8JUX5); test: flow cytometry, transfected 293T cells
[10] = molecular target: CHIKV E2-6K-E1 envelope proteins (strain S27) with E2 N202A (Chikungunya virus strain S27) (UniProt Q8JUX5); test: flow cytometry, transfected 293T cells
[11] = molecular target: CHIKV E2-6K-E1 envelope proteins (strain S27) with E2 V197A (Chikungunya virus strain S27) (UniProt Q8JUX5); test: flow cytometry, transfected 293T cells
[12] = molecular target: CHIKV E2-6K-E1 envelope proteins (strain S27) with E2 V192A (Chikungunya virus strain S27) (UniProt Q8JUX5); test: flow cytometry, transfected 293T cells
[13] = molecular target: CHIKV E2-6K-E1 envelope proteins (strain S27) with E2 K200A (Chikungunya virus strain S27) (UniProt Q8JUX5); test: flow cytometry, transfected 293T cells
[14] = molecular target: CHIKV E2-6K-E1 envelope proteins (strain S27) with E2 L180A (Chikungunya virus strain S27) (UniProt Q8JUX5); test: flow cytometry, transfected 293T cells
[15] = molecular target: CHIKV E2-6K-E1 envelope proteins (strain S27) with E2 I211A (Chikungunya virus strain S27) (UniProt Q8JUX5); test: flow cytometry, transfected 293T cells
[16] = molecular target: CHIKV E2-6K-E1 envelope proteins (strain S27) with E2 V188A (Chikungunya virus strain S27) (UniProt Q8JUX5); test: flow cytometry, transfected 293T cells
[17] = molecular target: CHIKV E2-6K-E1 envelope proteins (strain S27) with E2 G209A (Chikungunya virus strain S27) (UniProt Q8JUX5); test: flow cytometry, transfected 293T cells
[18] = molecular target: CHIKV E2-6K-E1 envelope proteins (strain S27) with E2 S206A (Chikungunya virus strain S27) (UniProt Q8JUX5); test: flow cytometry, transfected 293T cells
[19] = molecular target: CHIKV E2-6K-E1 envelope proteins (strain S27) with E2 S182A (Chikungunya virus strain S27) (UniProt Q8JUX5); test: flow cytometry, transfected 293T cells
[20] = molecular target: CHIKV E2-6K-E1 envelope proteins (strain S27) with E2 Q195A (Chikungunya virus strain S27) (UniProt Q8JUX5); test: flow cytometry, transfected 293T cells
[21] = molecular target: CHIKV E2-6K-E1 envelope proteins (strain S27) with E2 K189A (Chikungunya virus strain S27) (UniProt Q8JUX5); test: flow cytometry, transfected 293T cells
[22] = molecular target: CHIKV E2-6K-E1 envelope proteins (strain S27) with E2 Q184A (Chikungunya virus strain S27) (UniProt Q8JUX5); test: flow cytometry, transfected 293T cells
[23] = molecular target: CHIKV E2-6K-E1 envelope proteins (strain S27) with E2 C201A (Chikungunya virus strain S27) (UniProt Q8JUX5); test: flow cytometry, transfected 293T cells
[24] = molecular target: CHIKV E2-6K-E1 envelope proteins (strain S27) with E2 N219A (Chikungunya virus strain S27) (UniProt Q8JUX5); test: flow cytometry, transfected 293T cells
[25] = molecular target: CHIKV E2-6K-E1 envelope proteins (strain S27) with E2 Q183A (Chikungunya virus strain S27) (UniProt Q8JUX5); test: flow cytometry, transfected 293T cells
[26] = molecular target: CHIKV E2-6K-E1 envelope proteins (strain S27) with E2 K215A (Chikungunya virus strain S27) (UniProt Q8JUX5); test: flow cytometry, transfected 293T cells
[27] = molecular target: CHIKV E2-6K-E1 envelope proteins (strain S27) with E2 I217A (Chikungunya virus strain S27) (UniProt Q8JUX5); test: flow cytometry, transfected 293T cells
[28] = molecular target: CHIKV E2-6K-E1 envelope proteins (strain S27) with E2 C203A (Chikungunya virus strain S27) (UniProt Q8JUX5); test: flow cytometry, transfected 293T cells
[29] = molecular target: CHIKV E2-6K-E1 envelope proteins (strain S27) with E2 G204A (Chikungunya virus strain S27) (UniProt Q8JUX5); test: flow cytometry, transfected 293T cells
[30] = molecular target: CHIKV E2-6K-E1 envelope proteins (strain S27) with E2 G205A (Chikungunya virus strain S27) (UniProt Q8JUX5); test: flow cytometry, transfected 293T cells
[31] = molecular target: CHIKV E2-6K-E1 envelope proteins (strain S27) with E2 L181A (Chikungunya virus strain S27) (UniProt Q8JUX5); test: flow cytometry, transfected 293T cells
[32] = molecular target: CHIKV E2-6K-E1 envelope proteins (strain S27) with E2 T196A (Chikungunya virus strain S27) (UniProt Q8JUX5); test: flow cytometry, transfected 293T cells
[33] = molecular target: CHIKV E2-6K-E1 envelope proteins (strain S27) with E2 Y199A (Chikungunya virus strain S27) (UniProt Q8JUX5); test: flow cytometry, transfected 293T cells
[34] = molecular target: CHIKV E2-6K-E1 envelope proteins (strain S27) with E2 G186A (Chikungunya virus strain S27) (UniProt Q8JUX5); test: flow cytometry, transfected 293T cells
[35] = molecular target: CHIKV E2-6K-E1 envelope proteins (strain S27) with E2 S185A (Chikungunya virus strain S27) (UniProt Q8JUX5); test: flow cytometry, transfected 293T cells
[36] = molecular target: CHIKV E2-6K-E1 envelope proteins (strain S27) with E2 C220A (Chikungunya virus strain S27) (UniProt Q8JUX5); test: flow cytometry, transfected 293T cells
[37] = molecular target: CHIKV E2-6K-E1 envelope proteins (strain S27) with E2 N187A (Chikungunya virus strain S27) (UniProt Q8JUX5); test: flow cytometry, transfected 293T cells
[38] = molecular target: CHIKV E2-6K-E1 envelope proteins (strain S27) with E2 S194A (Chikungunya virus strain S27) (UniProt Q8JUX5); test: flow cytometry, transfected 293T cells
[39] = molecular target: CHIKV virus-like particles (strain 37997) (chikungunya virus); remark: listed apart in the source
[40] = molecular target: CHIKV virus-like particles (strain 37997) (chikungunya virus); remark: listed apart in the source
[41] = molecular target: CHIKV virus-like particles (strain 37997) (chikungunya virus); test: SPR, […], kinetic fit ([…]
[42] = molecular target: CHIKV strain 181/25 (virions; also E2-E1 shown on infected cells) (chikungunya virus); test: cryo-EM of infectious CHIKV with Mxra8
[43] = molecular target: CHIKV virus-like particles (strain 37997) (chikungunya virus); remark: listed apart in the source
[44] = molecular target: CHIKV virus-like particles (strain 37997) (chikungunya virus); remark: listed apart in the source
[45] = molecular target: CHIKV virus-like particles (strain 37997) (chikungunya virus); remark: listed apart in the source
[46] = molecular target: Sindbis virus strain TR339 (virions; also structural proteins on infected Vero cells) (Sindbis virus)
[47] = molecular target: CHIKV virus-like particles (strain 37997) (chikungunya virus); remark: listed apart in the source
[48] = molecular target: CHIKV virus-like particles (strain 37997) (chikungunya virus); remark: listed apart in the source
[49] = molecular target: CHIKV virus-like particles (strain 37997) (chikungunya virus); remark: listed apart in the source

CHK-265 (murine anti-CHIKV mAb) (antibody)
EC50 (read off the curve) [1]: 3 ng/mL

IM-CKV063 (antibody)
Binding Reactivity (% WT) [2]: 85.7 % WT | Binding Reactivity (% WT) [3]: 97.7 % WT | Binding Reactivity (% WT) [4]: 97.6 % WT | Binding Reactivity (% WT) [5]: 56.1 % WT | Binding Reactivity (% WT) [6]: 86.3 % WT | Binding Reactivity (% WT) [7]: 108 % WT | Binding Reactivity (% WT) [8]: 94.8 % WT | Binding Reactivity (% WT) [9]: 98.2 % WT | Binding Reactivity (% WT) [10]: 92.8 % WT | Binding Reactivity (% WT) [11]: 67.4 % WT | Binding Reactivity (% WT) [12]: 98.3 % WT | Binding Reactivity (% WT) [13]: 119 % WT | Binding Reactivity (% WT) [14]: 114 % WT | Binding Reactivity (% WT) [15]: 77.2 % WT | Binding Reactivity (% WT) [16]: 114 % WT | Binding Reactivity (% WT) [17]: 99.8 % WT | Binding Reactivity (% WT) [18]: 119 % WT | Binding Reactivity (% WT) [19]: 121 % WT | Binding Reactivity (% WT) [20]: 78.6 % WT | Binding Reactivity (% WT) [21]: 109 % WT | Binding Reactivity (% WT) [22]: 121 % WT | Binding Reactivity (% WT) [23]: 47.7 % WT | Binding Reactivity (% WT) [24]: 98 % WT | Binding Reactivity (% WT) [25]: 101 % WT | Binding Reactivity (% WT) [26]: 102 % WT | Binding Reactivity (% WT) [27]: 69.7 % WT | Binding Reactivity (% WT) [28]: 45.1 % WT | Binding Reactivity (% WT) [29]: 91.5 % WT | Binding Reactivity (% WT) [30]: 62 % WT | Binding Reactivity (% WT) [31]: 87.9 % WT | Binding Reactivity (% WT) [32]: 83 % WT | Binding Reactivity (% WT) [33]: 79.8 % WT | Binding Reactivity (% WT) [34]: 95.4 % WT | Binding Reactivity (% WT) [35]: 108 % WT | Binding Reactivity (% WT) [36]: 95.2 % WT | Binding Reactivity (% WT) [37]: 114 % WT | Binding Reactivity (% WT) [38]: 94 % WT

MAb C9 (antibody)
Binding Reactivity (% WT) [2]: 113 % WT | Binding Reactivity (% WT) [3]: 112 % WT | Binding Reactivity (% WT) [4]: 72 % WT | Binding Reactivity (% WT) [5]: 81.8 % WT | Binding Reactivity (% WT) [6]: 105 % WT | Binding Reactivity (% WT) [7]: 125 % WT | Binding Reactivity (% WT) [8]: 118 % WT | Binding Reactivity (% WT) [9]: 122 % WT | Binding Reactivity (% WT) [10]: 96.2 % WT | Binding Reactivity (% WT) [11]: 83.8 % WT | Binding Reactivity (% WT) [12]: 114 % WT | Binding Reactivity (% WT) [13]: 144 % WT | Binding Reactivity (% WT) [14]: 126 % WT | Binding Reactivity (% WT) [15]: 126 % WT | Binding Reactivity (% WT) [16]: 141 % WT | Binding Reactivity (% WT) [17]: 108 % WT | Binding Reactivity (% WT) [18]: 96 % WT | Binding Reactivity (% WT) [19]: 132 % WT | Binding Reactivity (% WT) [20]: 129 % WT | Binding Reactivity (% WT) [21]: 129 % WT | Binding Reactivity (% WT) [22]: 135 % WT | Binding Reactivity (% WT) [23]: 65 % WT | Binding Reactivity (% WT) [24]: 117 % WT | Binding Reactivity (% WT) [25]: 176 % WT | Binding Reactivity (% WT) [26]: 143 % WT | Binding Reactivity (% WT) [27]: 110 % WT | Binding Reactivity (% WT) [28]: 58.3 % WT | Binding Reactivity (% WT) [29]: 106 % WT | Binding Reactivity (% WT) [30]: 111 % WT | Binding Reactivity (% WT) [31]: 110 % WT | Binding Reactivity (% WT) [32]: 99.8 % WT | Binding Reactivity (% WT) [33]: 122 % WT | Binding Reactivity (% WT) [34]: 101 % WT | Binding Reactivity (% WT) [35]: 105 % WT | Binding Reactivity (% WT) [36]: 104 % WT | Binding Reactivity (% WT) [37]: 123 % WT | Binding Reactivity (% WT) [38]: 119 % WT

Mxra8 cleaved from Mxra8-HRV-Fc (soluble monomeric mouse Mxra8) (from UniProt Q9DBV4 23-336) (receptor)
Kd [39]: 200 nM | Kd [40]: 84 nM and 270 nM | Kd [41]: 83.9 nM and 270 nM | Mxra8 proteins bound per particle (proteins per particle) [42]: 60 | Kd [43]: 183 nM and 224 nM | kon [43]: 37000 M⁻¹ s⁻¹ | t1/2 [43]: 108 s | Mxra8 molecules per virion (molecules per virion) [44]: 240 | Kd [45]: 60 nM and 300 nM

cleaved human Mxra8 (human monomeric MXRA8) (from UniProt Q9BRK3 20-341) (receptor)
Kd [41]: 98.3 nM and 210 nM | Kd [45]: 60 nM and 300 nM

duck MXRA8-Fc (Fc fusion)
neutralisation of SINV-GFP infection; IC50 (read off the curve) [46]: 1 µg/mL

monovalent Du-D1-Mo-D2 MXRA8 (cleaved from the Fc fusion with GlySERIAS) (from UniProt Q9DBV4 23-65; Q9DBV4 195-293) (receptor)
Kd [47]: 665 nM | Kd [48]: 545 nM

monovalent mouse MXRA8 (cleaved from mouse MXRA8-Fc with GlySERIAS) (from UniProt Q9DBV4 20-340) (receptor)
Kd [49]: 76 nM | Kd [48]: 68 nM
